Results reported in US8361965B2, “Recombinant chimeric protein of neutrophil inhibitory factor and hirugen, and pharmaceutical composition thereof” (Lunan Pharmaceutical Group Corporation, priority 2008, dated 2013).

Test system: human peripheral blood leukocyte
Assay: inhibition of H2O2 release from human peripheral blood leukocyte
Assay type: cell-based
Method: 10 ml venous blood was taken from healthy people, and heparin sodium was added for anticoagulation. 10 ml HAS buffer (comprising RPMI 1640+10 mM HEPES+1.2 mM CaCl2+1.0 mM MgCl2+1% HAS, pH 7.4) was added into the blood and mixed. Leukocyte separation solution (Sangon) was charged into a sterile centrifuge tube, and whole blood mixture of the same volume was added slowly, and then centrifuged at 2000 rpm for 15 min. Leukocyte solution was taken from the interface and appropriate 1640 culture medium was added, centrifuged for 10 min, and washed twice. The supernatant was discarded, and appropriate HAS Buffer was added for resuspending the precipitate so as to prepare leukocyte suspension. The cell density was counted and adjusted to 4×10^7/ml. The product was separated at 37° C. and used within an hour.
Coating the 24-well plate with Hank's solution comprising 50% fetal bovine serum and culturing at 37 for 60 min; washing the plate with 0.15 M NaCl twice; diluting the cells to 6.0×10^6/ml with the buffer solution for release assay, adding cells, and culturing at 37 for 5 min; adding FMLP to the final concentration of 250 nM; adding TNHH samples at different concentrations and culturing at 37 for 60 min; pipetting the cell suspension, centrifuging at 8000×g for 3 min, and collecting the supernatant. Adding the supernatant into multiple-wells of a 96-well ELISA plate, adding 1 N NaOH (25 μl) for stopping the reaction, and determining the OD at 610 nm wavelength. Calculating the IC50 value of TNHH for inhibiting H2O2 release, and using the standard H2O2 solution as a control.

B1: TNHH: recombinant chimeric protein of neutrophil inhibitory factor and hirugen, Met-NIF-GGGGG-FPRPGSGG-Hirugen (SEQ ID NO: 3), expressed in E. coli (protein)
chain: MNEHNLRCPQNGTEMPGFNDSIRLQFLAMHNGYRSKLALGHISITEESESDDDDDFGFLPDFAPRASKMRYLEYDCEAEKSAYMSARNCSDSSSPPEGYDENKYIFENSNNISEAALKAMISWAKEAFNLNKTKEGEGVLYRSNHDISNFANLAWDAREKFGCAVVNCPLGEIDDETNHDGETYATTIHVVCHYPKINKTEGQPIYKVGTPCDDCSEYTKKADNTTSADPVCIPDDGVCFIGSKADYDSKEFYRFRELGGGGGFPRPGSGGNGDFEEIPEEYL
modifications: N-terminal Met
For B1, the “IC50 value for inhibiting H2O2 release” value (FMLP 250 nM, 60 min) was 8.5 µg/mL, the “Inhibition ratio (%)” value (TNHH 0.781 μg/ml) was −1.3% and the “Inhibition ratio (%)” value (TNHH 1.562 μg/ml) was 6.55%. The “Inhibition ratio (%)” value (TNHH 3.125 μg/ml) was 22.76%, the “Inhibition ratio (%)” value (TNHH 6.25 μg/ml) was 40.17% and the “Inhibition ratio (%)” value (TNHH 12.5 μg/ml) was 50.82%. The “Inhibition ratio (%)” value (TNHH 25 μg/ml) was 61.45%, the “Inhibition ratio (%)” value (TNHH 50 μg/ml) was 79.91% and the “Inhibition ratio (%)” value (TNHH 100 μg/ml) was 81.99%. The “inhibition ratio compared with the control group” value (concentration not given) was “about 70%”.
